Experimental data reported in the supplement of paper PMC9428881.
± gives the standard error.

Assay: background-corrected fluorescence of 3'-dye-labeled ssDNA relative to brightest sequence (3'-GCGCG) (fraction); higher = brighter dye fluorescence (less quenching)
In short: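 Light-directed phosphoramidite synthesis on glass slides produced single-stranded DNA carrying a 3' Cy3 or Cy5 dye next to each of 1024 permuted pentamers. After a 2 h acetonitrile wash at r.t., arrays were scanned at 532 or 635 nm both before and after overnight deprotection in ethylenediamine/ethanol. Every value is the mean of 10 features per array over at least 3 syntheses. Fluorescence had unlabeled-oligo background subtracted and was scaled to the brightest sequence.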

| Sequence | background-corrected fluorescence (dye: Cy3 (3' terminal)) | background-corrected fluorescence (dye: Cy5 (3' terminal)) |
| --- | --- | --- |
| TTTTTTGAGCATGATGCTGCTTTTTTTTTTTTTTTCTCAA [AACTC] | 0.52 ± 0.042 | 0.395 ± 0.02 |
| TTTTTGCATGCTCAGCATGCTTTTTTTTTTTTTTTTAGTA [ATGAT] | 0.566 ± 0.018 | 0.491 ± 0.042 |
| TTTTTTGCTCAGCAGCATCATTTTTTTTTTTTTTTAGTTG [GTTGA] | 0.516 ± 0.037 | 0.408 ± 0.034 |
| TTTTTGCATGCGCATGAGCATTTTTTTTTTTTTTTTATCT [TCTAT] | 0.457 ± 0.037 | 0.33 ± 0.017 |
| TTTTTGCAGCATGATGCTCATTTTTTTTTTTTTTTTTCAG [GACTT] | 0.506 ± 0.032 | 0.358 ± 0.027 |
| TTTTTGCATCATGCTGCTGCTTTTTTTTTTTTTTTTGAAA [AAAGT] | 0.603 ± 0.021 | 0.522 ± 0.041 |
| TTTTTTCATCATGATGATGATTTTTTTTTTTTTTTGGCCC [CCCGG] | 0.387 ± 0.028 | 0.312 ± 0.028 |
| TTTTTTCAGCATGATGCTCATTTTTTTTTTTTTTTGTCAG [GACTG] | 0.546 ± 0.028 | 0.404 ± 0.051 |
| TTTTTTCATGATGCTGCGCATTTTTTTTTTTTTTTGCAAT [TAACG] | 0.53 ± 0.018 | 0.406 ± 0.027 |
| TTTTTGCATGATCATGCGCATTTTTTTTTTTTTTTTCGAT [TAGCT] | 0.64 ± 0.011 | 0.441 ± 0.022 |
| TTTTTTGATCATGCGCATGCTTTTTTTTTTTTTTTCGATA [ATAGC] | 0.595 ± 0.036 | 0.427 ± 0.025 |
| TTTTTTCATCAGCATGCTGATTTTTTTTTTTTTTTGGTAC [CATGG] | 0.442 ± 0.016 | 0.349 ± 0.036 |
| TTTTTGCATGATCAGCATCATTTTTTTTTTTTTTTTCGTG [GTGCT] | 0.525 ± 0.015 | 0.441 ± 0.029 |
| TTTTTTGCTGCTCATGCGCATTTTTTTTTTTTTTTAAGAT [TAGAA] | 0.564 ± 0.024 | 0.496 ± 0.081 |
| TTTTTGCATCATGATGATCATTTTTTTTTTTTTTTTGCCG [GCCGT] | 0.519 ± 0.027 | 0.389 ± 0.029 |
| TTTTTTCATCATGCGCATCATTTTTTTTTTTTTTTGGATG [GTAGG] | 0.533 ± 0.031 | 0.388 ± 0.026 |
| TTTTTTCATGAGCAGCAGCATTTTTTTTTTTTTTTGCTTT [TTTCG] | 0.5304 ± 0.0051 | 0.384 ± 0.038 |
| TTTTTTGATCATGCTGAGCATTTTTTTTTTTTTTTCGACT [TCAGC] | 0.488 ± 0.019 | 0.363 ± 0.028 |
| TTTTTTGATGATGAGCAGCATTTTTTTTTTTTTTTCCCTT | 0.452 ± 0.011 | 0.359 ± 0.025 |
| TTTTTTGCTCATGAGCATGATTTTTTTTTTTTTTTAGCTC [CTCGA] | 0.408 ± 0.042 | 0.323 ± 0.024 |
| TTTTTGCAGCATGATCATCATTTTTTTTTTTTTTTTTCGG [GGCTT] | 0.59 ± 0.022 | 0.485 ± 0.024 |
| TTTTTGCATGAGCATGATGCTTTTTTTTTTTTTTTTCTCA [ACTCT] | 0.456 ± 0.019 | 0.348 ± 0.022 |
| TTTTTTCATGATCATCAGCATTTTTTTTTTTTTTTGCGGT [TGGCG] | 0.743 ± 0.026 | 0.566 ± 0.036 |

| Sequence | background-corrected fluorescence (dye: Cy3 (3' terminal)) | background-corrected fluorescence (dye: Cy5 (3' terminal)) |
| --- | --- | --- |
| TTTTTTGCTGATGCTGCTGCTTTTTTTTTTTTTTTACAAA [AAACA] | 0.581 ± 0.022 | 0.499 ± 0.064 |
| TTTTTGCATCATGAGCATGATTTTTTTTTTTTTTTTGCTC [CTCGT] | 0.374 ± 0.037 | 0.296 ± 0.036 |
| TTTTTTGCTGCGCATGAGCATTTTTTTTTTTTTTTAATCT [TCTAA] | 0.483 ± 0.036 | 0.338 ± 0.02 |
| TTTTTTCAGCATGATGAGCATTTTTTTTTTTTTTTGTCCT [TCCTG] | 0.464 ± 0.02 | 0.346 ± 0.024 |
| TTTTTTGCGCATGATCATGCTTTTTTTTTTTTTTTATCGA [AGCTA] | 0.635 ± 0.0066 | 0.517 ± 0.043 |
| TTTTTTCAGCATGCGCATGATTTTTTTTTTTTTTTGTATC [CTATG] | 0.417 ± 0.024 | 0.309 ± 0.019 |
| TTTTTTGCTGAGCATCAGCATTTTTTTTTTTTTTTACTGT [TGTCA] | 0.63 ± 0.027 | 0.45 ± 0.06 |
| TTTTTGCATCAGCATGATGCTTTTTTTTTTTTTTTTGTCA [ACTGT] | 0.487 ± 0.069 | 0.439 ± 0.08 |
| TTTTTTGATGATGCTGCTGCTTTTTTTTTTTTTTTCCAAA [AAACC] | 0.559 ± 0.025 | 0.445 ± 0.051 |
| TTTTTTCATCATGATCATCATTTTTTTTTTTTTTTGGCGG | 0.649 ± 0.014 | 0.604 ± 0.054 |
| TTTTTGCATGATCATGCTGATTTTTTTTTTTTTTTTCGAC [CAGCT] | 0.448 ± 0.03 | 0.378 ± 0.038 |
| TTTTTTGATCATCATGCGCATTTTTTTTTTTTTTTCGGAT [TAGGC] | 0.593 ± 0.017 | 0.472 ± 0.033 |
| TTTTTTGCTGCGCAGCAGCATTTTTTTTTTTTTTTAATTT | 0.559 ± 0.029 | 0.39 ± 0.025 |
| TTTTTTCAGCATGATGATCATTTTTTTTTTTTTTTGTCCG [GCCTG] | 0.54 ± 0.027 | 0.429 ± 0.081 |
| TTTTTTCATGATCATCATGCTTTTTTTTTTTTTTTGCGGA [AGGCG] | 0.786 ± 0.033 | 0.689 ± 0.033 |
| TTTTTTGATGAGCATGAGCATTTTTTTTTTTTTTTCCTCT [TCTCC] | 0.431 ± 0.012 | 0.312 ± 0.026 |
| TTTTTTGCTGATGATGCTGCTTTTTTTTTTTTTTTACCAA [AACCA] | 0.485 ± 0.029 | 0.402 ± 0.022 |
| TTTTTTGATGCTGATGATCATTTTTTTTTTTTTTTCACCG [GCCAC] | 0.505 ± 0.024 | 0.423 ± 0.058 |
| TTTTTTCATGATGATGCGCATTTTTTTTTTTTTTTGCCAT [TACCG] | 0.516 ± 0.048 | 0.404 ± 0.029 |
| TTTTTTGATCAGCATCAGCATTTTTTTTTTTTTTTCGTGT [TGTGC] | 0.571 ± 0.022 | 0.466 ± 0.037 |
| TTTTTTCATGCTGCTCAGCATTTTTTTTTTTTTTTGAAGT | 0.661 ± 0.012 | 0.529 ± 0.056 |
| TTTTTGCATGCGCATCATGCTTTTTTTTTTTTTTTTATGA [AGTAT] | 0.625 ± 0.025 | 0.579 ± 0.047 |
| TTTTTGCATGATGATGATGATTTTTTTTTTTTTTTTCCCC [CCCCT] | 0.33 ± 0.022 | 0.243 ± 0.015 |

| Sequence | background-corrected fluorescence (dye: Cy3 (3' terminal)) | background-corrected fluorescence (dye: Cy5 (3' terminal)) |
| --- | --- | --- |
| TTTTTGCAGCATCATGAGCATTTTTTTTTTTTTTTTTGCT [TCGTT] | 0.482 ± 0.014 | 0.361 ± 0.019 |
| TTTTTTGCGCATGATGATGCTTTTTTTTTTTTTTTATCCA [ACCTA] | 0.476 ± 0.012 | 0.373 ± 0.038 |
| TTTTTTGCGCAGCATGCTCATTTTTTTTTTTTTTTATTAG [GATTA] | 0.552 ± 0.011 | 0.421 ± 0.058 |
| TTTTTTGATGCGCAGCAGCATTTTTTTTTTTTTTTCATTT [TTTAC] | 0.523 ± 0.022 | 0.38 ± 0.032 |
| TTTTTTGATGATGATGCTGCTTTTTTTTTTTTTTTCCCAA [AACCC] | 0.485 ± 0.031 | 0.386 ± 0.022 |
| TTTTTGCATGCTCATGATGATTTTTTTTTTTTTTTTAGCC [CCGAT] | 0.425 ± 0.017 | 0.311 ± 0.015 |
| TTTTTTCATGCTGATGATGCTTTTTTTTTTTTTTTGACCA [ACCAG] | 0.499 ± 0.022 | 0.394 ± 0.024 |
| TTTTTTGAGCATGATGATGCTTTTTTTTTTTTTTTCTCCA [ACCTC] | 0.441 ± 0.019 | 0.356 ± 0.055 |
| TTTTTTGCTCATCATGCTGCTTTTTTTTTTTTTTTAGGAA [AAGGA] | 0.648 ± 0.0081 | 0.559 ± 0.021 |
| TTTTTTCATGCTCAGCATCATTTTTTTTTTTTTTTGAGTG [GTGAG] | 0.578 ± 0.031 | 0.445 ± 0.054 |
| TTTTTTCATCATCATGATGATTTTTTTTTTTTTTTGGGCC [CCGGG] | 0.517 ± 0.031 | 0.367 ± 0.032 |
| TTTTTTGCTCATCATCATGATTTTTTTTTTTTTTTAGGGC [CGGGA] | 0.598 ± 0.023 | 0.478 ± 0.064 |
| TTTTTTGAGCATCATGCTGCTTTTTTTTTTTTTTTCTGAA [AAGTC] | 0.575 ± 0.026 | 0.514 ± 0.029 |
| TTTTTTGAGCATGATGATGATTTTTTTTTTTTTTTCTCCC [CCCTC] | 0.377 ± 0.029 | 0.269 ± 0.018 |
| TTTTTGCAGCATGCGCATCATTTTTTTTTTTTTTTTTATG [GTATT] | 0.467 ± 0.015 | 0.366 ± 0.024 |
| TTTTTTGATGCTCATCATGATTTTTTTTTTTTTTTCAGGC [CGGAC] | 0.571 ± 0.012 | 0.469 ± 0.032 |
| TTTTTGCATGCGCAGCAGCATTTTTTTTTTTTTTTTATTT | 0.539 ± 0.04 | 0.381 ± 0.021 |
| TTTTTTGCTGATGATGCTCATTTTTTTTTTTTTTTACCAG [GACCA] | 0.516 ± 0.024 | 0.378 ± 0.028 |
| TTTTTGCATGCGCATCATCATTTTTTTTTTTTTTTTATGG [GGTAT] | 0.576 ± 0.011 | 0.467 ± 0.023 |
| TTTTTTGCGCAGCATCATGATTTTTTTTTTTTTTTATTGC [CGTTA] | 0.525 ± 0.024 | 0.402 ± 0.051 |
| TTTTTTCATGCTCATCATGCTTTTTTTTTTTTTTTGAGGA [AGGAG] | 0.747 ± 0.023 | 0.669 ± 0.059 |
| TTTTTGCATGATGCGCATGCTTTTTTTTTTTTTTTTCATA [ATACT] | 0.518 ± 0.019 | 0.396 ± 0.024 |
